Data published in patent US20150299764A1, “IMMOBILISED CYCLIN-DEPENDENT KINASE 4 FUSION PROTEINS AND USES THEREOF” (UNIVERSITE LIBRE DE BRUXELLES, priority 2012, published 2015).

Legend:
[1] = tested on: 48-kDa fragment (amino acid 773-928) of pRb; assay: pRb kinase assay on HEK293T cell extract bound to streptavidin-coated sepharose beads; assay type: biochemical; conditions: transiently transfected HEK293T cells, P-Rb T826 immunoblot
Procedure: In order to verify if the transgenes expressed in HEK293T cells after transient transfection could be immobilized on streptavidin-coated sepharose bead and were enzymatically active, HEK293T cells were cultivated and transfected with the indicated plasmids as described in Example 12.
After transfection, cells were washed with PBS and lysed on ice in 1 ml NP-40 lysis buffer as described in Example 11. The homogenized (glass/glass) cellular lysate was sonicated 3 times and stored at −20° C. Equal amount of protein from the defrozen lysates were then incubated for 3 h at 4° C. under slight shaking with 5 μl of streptavidin-coated sepharose beads (GE Healthcare) which had been prewashed three times with NP-40 lysis buffer without inhibitors. After 3 h, beads bound with transgene are washed three times with cold NP-40 lysis buffer without inhibitors before enzymatic activities are measured.
(§1) The pRb kinase assay was performed on the cellular extract bound to the streptavidin-coated sepharose beads as described previously (Coulonval et al., 2003, Exp. Cell Res., 291, 135-149). […] Proteins were resolved by SDS-PAGE and transferred on PVDF membranes (Perkin Elmer) before the phosphorylation on T826 of the pRb fragment was detected using the phosphor-specific pRb (T826) antibody (Thermo Fisher). […]
The pRb kinase assay was performed on the cellular extract bound to the streptavidin-coated sepharose beads (GE Healthcare) as described previously (Coulonval et al., 2003, Exp. Cell Res., 291, 135-149). […] Proteins were resolved by SDS-PAGE and transferred on low fluorescence PVDF membranes (Millipore) before the phosphorylation on T826 of the pRb fragment was detected using a phospho-specific rabbit anti-pRb (T826) antibody (Epitomics). Total GST-Rb load of the membranes was quantitated using the mouse anti-GST antibody (Pierce). […]

[2] = tested on: 48-kDa fragment (aa 773-928) of pRb; assay: pRb kinase assay on MCF7 cell extract bound to streptavidin-coated sepharose beads; assay type: biochemical
Procedure: In order to verify if transgenes expressed in MCF7 cells after transduction with the vectors described in Example 8 could be immobilized on streptavidin-coated sepharose bead and were enzymatically active, the MCF7 cells expressing the luciferase or the cyclin D3/CDK4 fusion protein described in the Example 14 were cultivated in 10 cm Petri dishes with 10 ml DMEM medium supplemented with 5% serum, insulin 6 ng/ml, NEAA (Gibco) 0.1 mM, Sodium pyruvate (1 mM), Penicillin (50 U/ml) and Streptomycin (50 μg/ml). The cells were rendered quiescent by incubating them for three days in phenol-free DMEM without serum and insulin, but supplemented with biotin (0.1 mM), NEAA (0.1 mM, Gibco), Sodium pyruvate (1 mM), Penicillin (50 U/ml) and Streptomycin (50 μg/ml). During the last 24 hours, fulvestrant (10 nM) was added to the culture to block estrogen receptor action. Cells were stimulated to proliferate by adding 5% serum, 6 ng/ml insulin and 100 nM β-estradiol in the culture medium for 16 hours in the continuous presence of biotin (0.1 mM). At the end of the culture, cells were washed with PBS and lysed on ice in 1 ml NP-40 lysis buffer as described in Example 10. The homogenized (glass/glass) cellular lysate was sonicated 3 times and stored at −20° C. Equal amounts of protein from the defrozen lysate were then incubated for 3 h at 4° C. under slight shaking with 5 μl of streptavidin-coated sepharose beads which had been prewashed three times with NP-40 lysis buffer without inhibitors. After 3 h, beads bound with transgene were washed three times with cold NP-40 lysis buffer without inhibitors before enzymatic activities were measured.
as §1, with “supra).” for “2003, Exp. Cell Res., 291, 135-149).”, “phospho-specific anti-pRb” for “phosphor-specific pRb”

B1: D3L2K4: cyclin D3 and CDK4 connected by the linker L2, SEQ ID NO. 10 (protein)
chain: MELLCCEGTRHAPRAGPDPRLLGDQRVLQSLLRLEERYVPRASYFQCVQREIKPHMRKMLAYWMLEVCEEQRCEEEVFPLAMNYLDRYLSCVPTRKAQLQLLGAVCMLLASKLRETTPLTIEKLCIYTDHAVSPRQLRDWEVLVLGKLKWDLAAVIAHDFLAFILHRLSLPRDRQALVKKHAQTFLALCATDYTFAMYPPSMIATGSIGAAVQGLGACSMSGDELTELLAGITGTEVDCLRACQEQIEAALRESLREASQTSSSPAPKAPRGSSSQGPSQTSTPTDVTAIHLASKGGGGSLEVLFQPSRMATSRYEPVAEIGVGAYGTVYKARDPHSGHFVALKSVRVPNGGGGGGGLPISTVREVALLRRLEAFEHPNVVRLMDVCATSRTDREIKVTLVFEHVDQDLRTYLDKAPPPGLPAETIKDLMRQFLRGLDFLHANCIVHRDLKPENILVTSGGTVKLADFGLARIYSYQMALTPVVVTLWYRAPEVLLQSTYATPVDMWSVGCIFAEMFRRKPLFCGNSEADQLGKIFDLIGLPPEDDWPRDVSLPRGAFPPRGPRPVQSVVPEMEESGAQLLLEMLTFNPHKRISAFRALQHSYLHKDEGNPE
[1]
  Rb kinase activity of the immobilized fusion protein: No difference in Rb-kinase activity
[1]; listed as cyclin D3/CDK4
  Rb kinase activity of the immobilized fusion protein: active
[2]; 16 h after serum/insulin/β-estradiol stimulation of MCF7 cells (FIG. 11B, lane 8)
  Rb kinase activity of the immobilized fusion protein: strongly enhanced
[2]; quiescent MCF7 cells (FIG. 11B, lane 7)
  Rb kinase activity of the immobilized fusion protein: detectable

B2: D3L3K4: cyclin D3 and CDK4 connected by the Prescission-cleavable linker L3, SEQ ID NO. 79 (protein)
chain: MELLCCEGTRHAPRAGPDPRLLGDQRVLQSLLRLEERYVPRASYFQCVQREIKPHMRKMLAYWMLEVCEEQRCEEEVFPLAMNYLDRYLSCVPTRKAQLQLLGAVCMLLASKLRETTPLTIEKLCIYTDHAVSPRQLRDWEVLVLGKLKWDLAAVIAHDFLAFILHRLSLPRDRQALVKKHAQTFLALCATDYTFAMYPPSMIATGSIGAAVQGLGACSMSGDELTELLAGITGTEVDCLRACQEQIEAALRESLREASQTSSSPAPKAPRGSSSQGPSQTSTPTDVTAIHLASKGGGGSLEVLFQPSRMATSRYEPVAEIGVGAYGTVYKARDPHSGHFVALKSVRVPNGGGGGGGLPISTVREVALLRRLEAFEHPNVVRLMDVCATSRTDREIKVTLVFEHVDQDLRTYLDKAPPPGLPAETIKDLMRQFLRGLDFLHANCIVHRDLKPENILVTSGGTVKLADFGLARIYSYQMALTPVVVTLWYRAPEVLLQSTYATPVDMWSVGCIFAEMFRRKPLFCGNSEADQLGKIFDLIGLPPEDDWPRDVSLPRGAFPPRGPRPVQSVVPEMEESGAQLLLEMLTFNPHKRISAFRALQHSYLHKDEGNPE
[1]
  Rb kinase activity of the immobilized fusion protein: No difference in Rb-kinase activity
[2]; stable MCF7 populations cultivated with 5% serum and insulin (FIG. 16)
  Rb kinase activity of the immobilized fusion protein: only detected
